{"source": "patent US6034062A", "about": "“Bone morphogenetic protein (BMP)-9 compositions and their uses” (Genetics Institute, Inc., priority 1997, dated 2000)", "key": {"IMCD-3 cells": {"test_system": "IMCD-3 cells", "assay": "IMCD-3 cell condensation and tubulogenesis in collagen matrix", "assay_type": "cell-based", "conditions": "IMCD-3 cells in 3-dimensional collagen gel, 100 ng/ml, 6 days, serum-free", "description": "(§1) Several cell lines are tested for BMP-9 responsiveness in vitro. Cell proliferation, as indicated by [^3 H]thymidine incorporation, is determined in cell lines derived from kidney and lung. Cell proliferation is determined by measuring [^3 H]thymidine incorporation in subconfluent cells treated for 24 h with or without growth factors. NRK-52E (ATCC CRL 1571), WI-38 (ATCC CCL-75), CCD-11Lu (ATCC CCL-202), CCD-16Lu (ATCC CCL-204), and A-549 (ATCC CCL-185) cell lines are placed at 10^4 cells/well in 96 well plates and assayed for [^3 H]thymidine incorporation as described above. IMCD-3 cells (ATCC #CRL-2123) are cultured in a collagen matrix as described by Barros et al., PNAS USA 92:4412-4416 (1995), and treated with growth factors for 6 days to allow tubule formation.\nIn contrast, BMP-9 appeared to stimulate proliferation in several fibroblast cell lines derived from lung. […] The effect of rhBMP-9 on tubulogenesis was examined in IMCD-3 cells, another epithelial kidney cell line. […] It is therefore contemplated that both lung and kidney cells are physiological targets for BMP-9."}, "lung plasma membranes": {"test_system": "lung plasma membranes", "assay": "[125I]rhBMP-9 binding to lung plasma membranes", "set-up": "species or system rat", "description": "To determine potential target tissues for BMP-9, plasma membrane preparations from adult rat organs are screened for specific [^125 I]rhBMP-9 binding. Plasma membranes are prepared by the methods of Neville, J. Biophys Biochem Cytol 8:412-422 (1960) and Ray, Biochim Biophys Acta 196:1-9 (1970) with the following modifications: Fresh tissues from adult male Long-Evans rats are homogenized with 10 strokes of a teflon homogenizer. Plasma membranes are collected from discontinuous sucrose gradients at 37%/41% sucrose interface and the 41%/45% sucrose interface. Homogenization buffer and sucrose solutions are supplemented with 0.7 μg/ml leupeptin, 2 μg/ml aprotinin and 240 μg/ml pefabloc. Protein levels in plasma membrane preparations are determined by the bicinchoninic acid assay (Pierce, Rockford, Ill.) using immunoglobulin G as a standard.\nBMP-9 binding is carried out by suspending plasma membranes at 30 μg/100μl in binding buffer (136.9 mM NaCl, 5.37 mM KCl, 1.26 mM CaCl2, 0.64 mM MgSO4, 0.34 mM Na2 HPO4, 0.44 mM KH2 PO4, 0.49 mM MgCl2, 25 mM HEPES and 0.5% BSA, pH 7.4) containing o.5 ng [^125 I]rhBMP-9. Binding is allowed to equilibrate by incubation for 16 h at 4° C. […]\nTo verify that this specific binding is of high affinity, a more complete displacement profile is determined with lung and kidney plasma membranes."}, "[1]": {"test_system": "NRK-52E kidney epithelial cells", "assay": "Cell proliferation, [3H]thymidine incorporation, NRK-52E", "assay_type": "cell-based", "conditions": "subconfluent, 24 h", "description": "as §1"}, "[2]": {"test_system": "A-549 lung epithelial cells", "assay": "Cell proliferation, [3H]thymidine incorporation, A-549", "assay_type": "cell-based", "conditions": "subconfluent, 24 h", "description": "as §1"}, "HepG2 cells": {"test_system": "HepG2 cells", "assay": "HepG2 cell proliferation (3H-thymidine incorporation, cell counting)", "assay_type": "cell-based", "description": "As a first indication of BMP-9 effects on confluent, serum starved HepG2 cells, cell proliferation is examined as determined by ^3 H-thymidine incorporation and cell counting. HepG2 cells are plated at […] in 96 well plates and cultured for 48 hours in DME/0.1% FCS to synchronize the cell cycle are treated for 24 hours with or without BMP-9 in the presence of 0.1% FCS. In ^3 H-thymidine incorporation assays, ^3 H-thymidine was included during the last 4 hours of treatment and cellular DNA was collected with a 96 well plate cell harvester. Proliferation was assayed by quantifying ethanol-precipitable ^3 H-thymidine incorporation by liquid scintillation counting. For cell counting assays, cells were trypsinized and counted with a hemacytometer. Primary rat hepatocytes isolated from male Fischer 344 rats (Charles River, Wilmington, Mass.) by collagenase digestion as previously described [Michalopoulos et al., Cancer Res. 42:4673-4682 (1982)] are plated on collagen-coated plates at subconfluence (5,000-10,000 cells/cm^2) in serum-free media as described in Michalopoulos et al., Cancer Res. 42:4673-4682 (1982) and treated with or without rhBMP-9 for 36 hours. ^3 H-thymidine was included throughout the treatment period and incorporated ^3 H-thymidine was quantified as described by Anscher et al., New England J. Med. 328:1592-1598 (1993). BMP-9 stimulates ^3 H-thymidine incorporation in HepG2 cells approximately five fold."}, "W-20-17": {"test_system": "W-20-17", "assay": "Alkaline phosphatase activity in W-20-17 osteoprogenitor cell line", "assay_type": "cell-based", "conditions": "dose responsive", "description": "W-20 cells are plated into 96 well tissue culture plates at a density of 10,000 cells per well in 200 μl of media (DME with 10% heat inactivated fetal calf serum, 2 mM glutamine and 100 U/ml+100 μg/ml streptomycin. The cells are allowed to attach overnight in a 95% air, 5% CO2 incubator at 37° C.\nThe 200 μl of media is removed from each well with a multichannel pipettor and replaced with an equal volume of test sample delivered in DME with 10% heat inactivated fetal calf serum, 2 mM glutamine and 1% penicillin-streptomycin. Test substances are assayed in triplicate.\nThe test samples and standards are allowed a 24 hour incubation period with the W-20 indicator cells. After the 24 hours, plates are removed from the 37° C. incubator and the test media are removed from the cells.\nThe W-20 cell layers are washed 3 times with 200 μl per well of calcium/magnesium free phosphate buffered saline and these washes are discarded.\n50 μl of glass distilled water is added to each well and the assay plates are then placed on a dry ice/ethanol bath for quick freezing. Once frozen, the assay plates are removed from the dry ice/ethanol bath and thawed at 37° C. […]\nThe spectrophotometric absorbance for each well is read at a wavelength of 405 nanometers. […] For example, using known amounts of p-nitrophenol phosphate, absorbance values are generated."}}, "data": [{"molecule": "BMP-9: recombinant human bone morphogenetic protein-9, mature amino acids #1-#110 of SEQ ID NO:9, expressed in CHO cells (protein, 125I-iodinated as tracer; unlabelled BMP-9 used as the displacing ligand) TRECSRSCPRTAPQRQVRAVTRRTRMAHVAAGSTLARRKRSAGAGSHCQKTSLRVNFEDIGWDSWIIAPKEYEAYECKGGCFFPLADDVTPTKHAIVQTLVHLKFPTKVG", "values": [{"measurement": "cell condensation and tubulogenesis", "setting": "IMCD-3 cells", "value": "did not induce tubules and inhibited the cell condensations and tubule formation observed under control conditions"}, {"measurement": "specific [125I]rhBMP-9 binding", "setting": "lung plasma membranes; adult rat lung plasma membranes, displaceable by 100-fold excess of unlabeled rhBMP-9", "value": "evident"}, {"measurement": "Kd", "setting": "lung plasma membranes; rat lung plasma membranes", "value": 0.6, "unit": "nM"}, {"measurement": "cell proliferation ([3H]thymidine incorporation)", "setting": "[1]", "value": "inhibited proliferation"}, {"measurement": "cell proliferation ([3H]thymidine incorporation)", "setting": "[2]", "value": "inhibited proliferation"}, {"measurement": "ED50, stimulation of 3H-thymidine incorporation", "setting": "HepG2 cells; HepG2 cells, estimated", "value": 10, "unit": "ng/mL"}, {"measurement": "cell counting", "setting": "HepG2 cells; HepG2 cells, treated 24 hours", "value": "stimulatory effect"}, {"measurement": "stimulation of 3H-thymidine incorporation", "setting": "HepG2 cells; confluent, serum starved HepG2 cells, treated 24 hours, 0.1% FCS", "value": "approximately five"}, {"measurement": "ED50, stimulation of alkaline phosphatase activity", "setting": "W-20-17", "value": 4, "unit": "ng/mL"}]}]}
